In assay [1] the target is LAdV-2 penton base protein (lizard atadenovirus LAdV-2). Put plainly: cryo-EM structure.
In assay [2] the target is LAdV-2 protein LH3 (lizard atadenovirus LAdV-2). Description: cryo-EM structure.

By stoichiometry N is commonly meant a count of units in the complex or per binding partner. Substance “LAdV-2 penton base protein (natural protein)” returned a stoichiometry N in assay [1] of 5.

Substance LAdV-2 protein LH3 (natural protein) returned a stoichiometry N in assay [2] of 3.
